Measured values from patent publication US20220031841A1 (ABSCI, published 2022).

What was measured:
Assay in all cases: HuProt protein array, F635 z-score
[1] = target: T1, Inorganic pyrophosphatase (PPA1) (human, UniProt Q15181 2-289)
T1 construct: The array carries full-length recombinant human proteins expressed in S. cerevisiae; also called Human PPA1
T1 sequence: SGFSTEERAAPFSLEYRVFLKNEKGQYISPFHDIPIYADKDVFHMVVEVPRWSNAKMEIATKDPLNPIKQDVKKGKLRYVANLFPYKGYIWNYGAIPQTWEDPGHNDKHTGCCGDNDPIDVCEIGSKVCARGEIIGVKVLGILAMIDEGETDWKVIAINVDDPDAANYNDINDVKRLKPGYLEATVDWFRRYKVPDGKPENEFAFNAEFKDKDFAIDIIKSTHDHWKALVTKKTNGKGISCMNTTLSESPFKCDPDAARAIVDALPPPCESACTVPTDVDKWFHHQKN
From the text: (§1) Large scale protein arrays are versatile and sensitive platforms for antibody specificity evaluation. They can be used for the evaluation of protein binding or affinity reagents that are widely employed in research and clinical applications. The microarray used in our target identification experiment provides the largest number of unique, full-length, individually purified human proteins on a single microscope slide. This allows thousands of interactions to be profiled in a high-throughput manner. The hill-length recombinant proteins are expressed in the yeast S. cerevisiae, purified, and printed on glass slides in duplicate along with a set of control proteins (GST, BSA, histones, IgG, etc.). Such microarray is not restricted to a particular type of surface coating, although the default is glass coated with ultra-thin nitrocellulose film for the non-covalent, yet irreversible, capture of active proteins to the surface. Fourteen Protein arrays were used for the antibody cross-reactivity assay of the samples. The antibodies were probed at […] on the arrays and incubated at room temperature for 1 hour. After probing, the arrays were washed according to the protocol and probed with Alexa-647-anti-human IgG […] specific secondary antibodies under conditions optimized for signal detection. The antibody-antigen binding score was calculated for each protein represented on the array and expressed as z-scores.
(§2) Antibody samples are probed on native HuProt arrays at 1 μg/ml and incubated at room temperature for 1 hour. After probing, the arrays are washed according to the standard protocols and probed with Alexa-647-anti-human IgG Fc gamma specific secondary antibodies under conditions optimized for signal detection.
(§3) Z score is the average Z score of the duplicate spots of a given protein (each protein is printed in duplicate on a HuProt™ array). The Z score of each spot on a given array is calculated according to the equation: […]

[2] = target: T2, Cancer/testis antigen 1 (CTAG1A) (human, UniProt P78358 1-180)
T2 construct: The array carries full-length recombinant human proteins expressed in S. cerevisiae; also called NY-ESO-1; Cancer/Testis Antigen 1A
From the text: as §1, §2, §3

[3] = target: T3, O-linked N-acetylglucosamine (GlcNAc) transferase (OGT) (human, UniProt O15294 2-1046)
T3 construct: The array carries full-length recombinant human proteins expressed in S. cerevisiae; also called Human OGT
T3 sequence: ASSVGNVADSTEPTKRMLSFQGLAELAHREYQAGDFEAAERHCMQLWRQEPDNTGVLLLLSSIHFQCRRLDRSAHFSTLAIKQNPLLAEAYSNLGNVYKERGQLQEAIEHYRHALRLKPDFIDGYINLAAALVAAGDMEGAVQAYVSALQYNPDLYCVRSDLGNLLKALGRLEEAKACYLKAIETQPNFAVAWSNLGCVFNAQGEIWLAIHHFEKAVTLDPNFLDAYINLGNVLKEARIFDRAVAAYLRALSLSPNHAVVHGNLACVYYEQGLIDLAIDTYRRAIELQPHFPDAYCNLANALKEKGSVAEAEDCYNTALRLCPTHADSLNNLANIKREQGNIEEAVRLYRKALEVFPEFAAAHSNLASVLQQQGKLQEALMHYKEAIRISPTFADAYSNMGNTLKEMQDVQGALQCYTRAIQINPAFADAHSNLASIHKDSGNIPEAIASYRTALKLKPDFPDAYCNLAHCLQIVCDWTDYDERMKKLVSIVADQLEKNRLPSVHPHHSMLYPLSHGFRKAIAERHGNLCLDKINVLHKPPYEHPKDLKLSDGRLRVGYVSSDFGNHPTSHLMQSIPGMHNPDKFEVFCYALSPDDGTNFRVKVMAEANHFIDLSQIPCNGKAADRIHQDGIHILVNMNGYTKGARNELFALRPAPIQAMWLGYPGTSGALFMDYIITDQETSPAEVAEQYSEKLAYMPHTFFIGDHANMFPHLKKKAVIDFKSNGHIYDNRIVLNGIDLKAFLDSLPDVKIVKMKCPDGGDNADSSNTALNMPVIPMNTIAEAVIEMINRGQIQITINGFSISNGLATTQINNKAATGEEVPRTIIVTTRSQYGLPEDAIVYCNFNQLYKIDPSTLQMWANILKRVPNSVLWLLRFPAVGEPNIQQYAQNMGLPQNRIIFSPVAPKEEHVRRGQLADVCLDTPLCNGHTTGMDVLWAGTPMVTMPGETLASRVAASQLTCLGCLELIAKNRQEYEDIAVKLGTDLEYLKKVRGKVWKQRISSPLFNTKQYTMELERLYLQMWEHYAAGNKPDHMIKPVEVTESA
From the text: as §1, §2, §3

[4] = target: T4, Melanoma-associated antigen 3 (MAGE-A3) (human, UniProt P43357 1-314)
T4 construct: The array carries full-length recombinant human proteins expressed in S. cerevisiae; also called Human MAGE-A3
From the text: as §1, §2, §3

Measured: binding result

T4 sequence (P43357 whole entry): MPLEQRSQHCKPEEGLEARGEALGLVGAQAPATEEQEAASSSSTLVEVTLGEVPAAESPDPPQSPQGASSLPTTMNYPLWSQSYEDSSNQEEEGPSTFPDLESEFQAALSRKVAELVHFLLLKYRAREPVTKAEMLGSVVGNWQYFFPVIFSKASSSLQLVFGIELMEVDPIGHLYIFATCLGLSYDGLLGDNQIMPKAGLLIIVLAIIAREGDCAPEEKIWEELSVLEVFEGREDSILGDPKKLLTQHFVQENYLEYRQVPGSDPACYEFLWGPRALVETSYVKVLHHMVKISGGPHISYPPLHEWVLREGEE
T2 sequence (P78358 whole entry): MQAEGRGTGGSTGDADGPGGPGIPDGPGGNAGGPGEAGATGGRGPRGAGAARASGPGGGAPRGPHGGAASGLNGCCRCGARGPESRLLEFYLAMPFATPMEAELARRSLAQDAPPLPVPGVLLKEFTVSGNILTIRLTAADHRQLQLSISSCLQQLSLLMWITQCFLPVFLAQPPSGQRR

B1: TMEL1009 (antibody, V domains shown)
VH: PVQLVQSGAEVKKPGSSVKVSCRASGGTFSNYGLNWVRQAPGQGLEWMGGIIPIFGSVNYAQKFQDRVTITADESTSTTYMDLNSLRSEDTAVYYCATERGHNMERAFDFWGQGTLVTVSS
VL: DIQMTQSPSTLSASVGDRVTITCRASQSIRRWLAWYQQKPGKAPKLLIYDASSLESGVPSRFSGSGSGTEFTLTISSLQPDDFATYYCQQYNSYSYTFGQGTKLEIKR
no binding (tested: 1 µg/ml): [1] | [2] | [3]

B2: TMEL1004 (antibody, V domains shown)
VH: QITLKESGPTLVKPTQTLTLTCTFSGFSLNTPGVGVGWIRQPPGKALEWLALIYWDDDKRYRPSLESRLTITKDTSKNHVVLTMTNMDPVDTATYFCAHKNLQYSEWFDPWGQGTLVIVSS
VL: EMVLTQSPATLSLSPGERATLSCRASQSVSRNSLAWYQQRPGQTPRLLIYGASSRATGIPDRFSGSGSGTDFTLIISRLEPEDFAVYFCLQYDESPYTFGQGAKLEIKR
no binding (tested: 1 µg/ml): all assays above

B3: TMEL1007 (antibody, V domains shown)
VH: HVHLVQSGAEVKKPGSSVKVSCTASGGSFSSNPISWVRQAPGHGLQWMGGFVPLFGTANYAPSFHGRLTITADESTSTTYMELNSLRSEDSAVYYCARDFNWNFDFWGQGTLVTVSS
VL: QSALTQPASVSGSPGQSITISCTGTSSDIGSYNLVSWYRQYPGKAPKLMIYEVNKRPSGVSNRFSGSKSGNTASLTISGLQAEDEADYYCCSYAGTTTFVIFGRGTKLTVLG
notes: It was detected with an anti-human IgG Fc gamma secondary antibody
no binding (tested: 1 µg/ml): all assays above

B4: TMEL1014 (antibody, V domains shown)
VH: SVQLVESGGGVVQPGRSLRLSCAASGFTFSSYTMHWVRQAPGKGLEWVALISYDGSNKYYADSVKGRFTISRDNPKNTLYLQMNSLRVEDTAVYYCARDWTLGYWGQGTLVTVSS
VL: VSSELTQDPAVSVALGQTVRITCQGDSLRNYYANWYQQKPGQAPILVIYDKNNRPSGIPDRFSGSSSGNTASLTITGAQAEDEADYYCNSRDSSGYHLVFGGGTKLTVLG
notes: as for B3
no binding (tested: 1 µg/ml): [1] | [2]

B5: TMEL1008 (antibody, V domains shown)
VH: QVQLVQSGAEVKKPGSSVKVSCKASGGTFNRDGIIWVRQAPGQGLEWMGRIIPILGIANYAQKFQGRVTIIADKSTSTAYMELSSLRSEDTAVYYCARESEVGRGMDVWGQGTTVTVSS
VL: ASALTQPASVSGSPGQSITISCTGTSSDVGDYNYVSWYQQHPGKAPKLMIYDVSNRPSGVSHRFSGSKSGNTASLTISGLQAEDEADYYCSSYTISSTLGVFGPGTKVTVLG
notes: as for B3
no binding (tested: 1 µg/ml): [1] | [2] | [3]

B6: TMEL1002 (antibody, V domains shown)
VH: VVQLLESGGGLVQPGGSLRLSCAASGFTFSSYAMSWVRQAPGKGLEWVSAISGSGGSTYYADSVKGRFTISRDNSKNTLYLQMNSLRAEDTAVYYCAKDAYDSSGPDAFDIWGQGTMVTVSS
VL: ASALTQPASVSGSPGQSITISCTGTSSDVGDYNYVSWYQQHPGKAPKLMIYDVSNRPSGVSNRFSGSKSGNTASLTISGLQAEDEADYYCSSYTSSSTLVFGGGTKLTVLG
no binding (tested: 1 µg/ml): all assays above

B7: TMEL1012 (antibody, V domains shown)
VH: PLQLQESGPGLVKPSETLSLTCTVSGDSITTTYYWGWIRQPPGKGLEWIASIYFTGSTFHNPSLKSRVTMSVDTSKNQFSLNLSSVTAADTAVYYCARRVGNWNYVWFDPWGQGTLVSVSS
VL: AYVLTQPPSVSVAPGQTARMTCGGNNIGSKSVHWYRQRPGQAPVLVVYDDTDRPSGIPERFSGSNSGNTATLTISRVEAGDEADYYCQVWDTNSDHVVFGGGTKLTVLG
no binding (tested: 1 µg/ml): all assays above

B8: TMEL1013 (antibody, V domains shown)
VH: PVQLVQSGAEVKKPGSSVKVSCKASGGTFSSYTINWVRQAPGQGLEWMGRIIPILGVANYAQKFQGRVTITADKSTSTAYMDLSSLRSEDTAVYYCAREWERAFDYWGQGTLVTVSS
VL: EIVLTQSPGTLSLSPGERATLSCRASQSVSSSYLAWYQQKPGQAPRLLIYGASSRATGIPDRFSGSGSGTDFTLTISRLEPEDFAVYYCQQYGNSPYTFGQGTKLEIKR
no binding (tested: 1 µg/ml): [1] | [2] | [3]

B9: TMEL1011 (antibody, V domains shown)
VH: PVQLVQSGAEVKKPGSSVKVSCKASGGTFSSYSFNWVRQAPGQGLEWMARIIPILGLANYAQKFQGRVTLTADESTSTAYMELSSLRSEDTAIFYCAGMVLGQLGFDPWGQGTLVTVSS
VL: QFMLTQPHSVSESPGRTVTISCTRSSGSIARNYVHWYQHRPGSSPTTVIYEDDQRPSGVPDRFSGSIDSSSNSASLTISGLKPEDEADYFCQSYDSNIWVFGGGTKLTVLG
notes: as for B3
no binding (tested: 1 µg/ml): all assays above

B10: TMEL1010 (antibody, V domains shown)
VH: QVQLVQSGAEVKKPGASVKVSCKASGYTFSSYGISWVRQAPGQGLEWMGWISAYNGNTNYAKKLQGRVTMTTDTSTSTAYLELRSLRSDDTAVYYCARGDGPFDYWGQGTLVTVSS
VL: EIVMTQSPATLSVSPGERATLSCWASQSVSSSLAWYQQKPGQAPRLLMYGASNRATGIPARFSGSGSGTEFTLTISSLQSEDFAVYYCQQYNKWPPDTFGQGTKLEIKR
notes: as for B3
no binding (tested: 1 µg/ml): [2] | [3] | [4]
